Target: the molecule itself
Test: crystal structure; GOT1 (16 mg/mL) mixed with 40 uM AH, sitting-drop vapor diffusion, 18 °C, 0.1 M HEPES pH 7.5, 12% w/v PEG 3350; 2.6 Å; two subunits (chains A and B) form the dimer

B1: glutamic oxaloacetate transaminase 1 (GOT1) (enzyme, human)
chain: PPSVFAEVPQAQPVLVFKLTADFREDPDPRKVNLGVGAYRTDDCHPWVLPVVKKVEQKIANDNSLNHEYLPILGLAEFRSCASRLALGDDSPALKEKRVGGVQSLGGTGALRIGADFLARWYNGTNNKNTPVYVSSPTWENHNAVFSAAGFKDIRSYRYWDAEKRGLDLQGFLNDLENAPEFSIVVLHACAHNPTGIDPTPEQWKQIASVMKHRFLFPFFDSAYQGFASGNLERDAWAIRYFVSEGFEFFCAQSFSKNFGLYNERVGNLTVVGKEPESILQVLSQMEKIVRITWSNPPAQGARIVASTLSNPELFEEWTGNVKTMADRILTMRSELRARLEALKTPGTWNHITDQIGMFSFTGLNPKQVEYLVNEKHIYLLPSGRINVSGLTTKNLDYVATSIHEAVTKIQ
modifications: in the crystal: C17 atom of AH covalently linked to the N atom of Lys259 in chain A; PLP in chain B
notes: GOT1, expression construct pET26b-got1; Domains described in the structure span residues 17-411; also called WT-GOT1; glutamic-oxaloacetic transaminase 1; source: E. coli BL21 (DE3), purified (HisTrap FF, Resource Q, Superdex200 Increase)
B1: binds.

Source: PMC8618880, “Discovery of GOT1 Inhibitors from a Marine-Derived Aspergillus terreus That Act against Pancreatic Ductal Adenocarcinoma” (Marine Drugs, 2021)
